Assays:
[1] = substrate: CCCCCCCC/C=C\CCCCCCCC(=O)OC[C@H](COP(=O)([O-])OCC[N+](C)(C)C)OC(=O)CCCCCCC/C=C\CCCCCCCC; assay: radiochemical PC:MLCL transacylase assay, TLC and scintillation counting, Lineweaver-Burk; type: biochemical, Mus musculus; settings: labelled compound (3H), acyl donor 0-200 μM, acceptor MLCL 100 μM (methods text: 40 μM final), pH 8, 37 °C, 2 mM DTT, 0.1% Nonidet P-40, enzyme on anti-HA beads, apparent
From the text: (§1) radiochemical PC:MLCL transacylase assay, TLC and scintillation counting, Lineweaver-Burk on PLAAT1

[2] = substrate: CCCCCCCCCCCCCCCCCC(=O)OC[C@H](COP(=O)([O-])OCC[N+](C)(C)C)OC(=O)CCCCCCCCCCCCCCCCC; assay: as above; type: biochemical, Mus musculus; settings: labelled compound (3H), acyl donor 0-200 μM, acceptor MLCL 100 μM (methods text: 40 μM final), pH 8, 37 °C, 2 mM DTT, 0.1% Nonidet P-40, enzyme on anti-HA beads, apparent
From the text: as §1

B1: PLAAT1 (Mus musculus) (protein)
chain: MAVNDCFSLTYPHNPHPGDLIEVFRPCYQHWALYLGDGYVINIAPIDGIRSSFTSAKSVFSTKALVKMQLLKDVVGNDTYRINNKYDTTYPPLPVEEVIQRSEFPIGQEVAYDLLVNNCEHFVTLLRYGEGVSEQANRAIGTIGLVAAGIDIFTFLGLFPKRQRTKY
notes: complete coding region; C-terminal 6xHis, HA-tagged; adenoviral expression in HEK-293; immunopurified on anti-HA beads
B1 showed a Km [1] of 16 µM, a Vmax [1] of 0.61 µmol/min/mg and a Km [2] of 126 µM. For the same protein, the Vmax [2] was 1.61 µmol/min/mg.

Source: article PMC9224490, “PLAAT1 Exhibits Phosphatidylcholine:Monolysocardiolipin Transacylase Activity” (International Journal of Molecular Sciences, 2022)
